Biological target: H3K4AK9me2 peptide (UniProt P59226)
Test: ITC; reference is the H3K9me2 peptide

B1: SHH1 SAWADEE domain (residues 125-258) (protein)
chain: ADLAFEAKSARDYAWYDVSSFLTYRVLRTGELEVRVRFSGFDNRHDEWVNVKTSVRERSIPVEPSECGRVNVGDLLLCFQEREDQALYCDGHVLNIKRGIHDHARCNCVFLVRYELDNTEESLGLERICRRPEE
Work on B1 yielded a fold weaker affinity than with the H3K9me2 peptide of 30 fold.

— patent publication US20160017348A1
